The results in this text go back to article PMC10934791 (Molecules, 2024).

In experiment [1] the target is recombinant Lymnaea stagnalis acetylcholine-binding protein (AChBP) produced in LEXSY (Lymnaea stagnalis). The experiment can be described thus: radioligand binding.
Experiment [2] deals with T1, recombinant L. stagnalis AChBP expressed in the insect Sf9 cells (Lymnaea stagnalis, UniProt P58154 20-229).
T1 construct: also called insect cell-produced AChBP; standard specimen of insect cell-produced AChBP
T1 sequence (P58154 20-229): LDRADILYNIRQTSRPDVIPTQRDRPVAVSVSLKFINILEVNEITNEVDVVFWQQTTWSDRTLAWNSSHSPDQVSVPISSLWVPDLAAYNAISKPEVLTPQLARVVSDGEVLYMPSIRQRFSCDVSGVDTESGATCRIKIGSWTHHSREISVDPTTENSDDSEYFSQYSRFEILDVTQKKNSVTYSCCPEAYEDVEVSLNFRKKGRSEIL
As to the kind of experiment: radioligand binding. As to conditions: both partners purified.

Usually Kd stands for a measure of binding affinity in units of concentration.

Sequence of recombinant Lymnaea stagnalis acetylcholine-binding protein (AChBP) produced in LEXSY (Lymnaea stagnalis) (P58154 20-229 limits assumed): as the sequence (P58154 20-229) above

For “radioiodinated α-bungarotoxin (from UniProt P60615 22-95) (ligand)”, the Kd in experiment [1] stood at 50 pM.

B1: radioiodinated α-bungarotoxin (ligand)
chain: IVCHTTATSPISAVTCPPGENLCYRKMWCDAFCSSRGKVVELGCAATCPSKKPYEEVTCCSTDKCNPHPKQRPG
Take B1: the Kd in experiment [2] was 62 ± 13 pM.
